Assay results taken from patent US20190023748A1 (NAVIGEN, published 2019).
Bridge positions count the residues as written; N and C are the ends. Square brackets hold non-standard residues; d marks the D form. Primed or numbered codes have the meaning given here. PEG4′ = not defined here

How the values were obtained:
Assay in all cases: cell-based or functional assay
[1] = molecular target: HIV-1 gp41 of strain JRFL (HIV-1 strain JRFL)
[2] = molecular target: HIV-1 gp41 of isolate 3343IN (clade B) (HIV-1 isolate 3343IN)
[3] = molecular target: HIV-1 gp41 of isolate TZBD9/11 (clade C) (HIV-1 isolate TZBD9/11)
[4] = molecular target: HIV-1 gp41 of isolate 93UG065 (clade D) (HIV-1 isolate 93UG065)
[5] = molecular target: HIV-1 gp41 of isolate 93RW024 (clade A) (HIV-1 isolate 93RW024)
[6] = molecular target: HIV-1 gp41 of isolate MN/H9 (clade B) (HIV-1 isolate MN/H9)
[7] = molecular target: HIV-1 gp41 of isolate Ba-L (clade B) (HIV-1 isolate Ba-L)
[8] = molecular target: HIV-1 gp41 of isolate PBL286 (clade C) (HIV-1 isolate PBL286)
[9] = molecular target: HIV-1 gp41 of isolate TZA68 (clade C) (HIV-1 isolate TZA68)
[10] = molecular target: HIV-1 gp41 of isolate KNH1088 (clade A) (HIV-1 isolate KNH1088)
[11] = molecular target: HIV-1 gp41 of isolate 0503M02138 (AE) (HIV-1 isolate 0503M02138)
[12] = molecular target: HIV-1 gp41 of isolate US1/GS0004 (clade B) (HIV-1 isolate US1/GS0004)
[13] = molecular target: HIV-1 gp41 of isolate 92UG029 (clade A) (HIV-1 isolate 92UG029)
[14] = molecular target: HIV-1 gp41 of isolate CAM0014 (AG) (HIV-1 isolate CAM0014)
[15] = molecular target: HIV-1 gp41 of isolate A08483M1 (clade D) (HIV-1 isolate A08483M1)
[16] = molecular target: HIV-1 gp41 of isolate 873 (clade B) (HIV-1 isolate 873)
[17] = molecular target: HIV-1 gp41 of isolate CAM1475MV (AG) (HIV-1 isolate CAM1475MV)
[18] = molecular target: HIV-1 gp41 of isolate CAM0013 (AG) (HIV-1 isolate CAM0013)
[19] = molecular target: HIV-1 gp41 of isolate KER2018 (clade A) (HIV-1 isolate KER2018)
[20] = molecular target: HIV-1 gp41 of isolate KNH1135 (clade A) (HIV-1 isolate KNH1135)
[21] = molecular target: HIV-1 gp41 of isolate CAM0005 (AG) (HIV-1 isolate CAM0005)
[22] = molecular target: HIV-1 gp41 of isolate A03349M1 (clade D) (HIV-1 isolate A03349M1)
[23] = molecular target: HIV-1 gp41 of isolate NP1251 (AE) (HIV-1 isolate NP1251)
[24] = molecular target: HIV-1 gp41 of isolate CAM1970LE (AG) (HIV-1 isolate CAM1970LE)
[25] = molecular target: HIV-1 gp41 of isolate CM240/GS022 (AE) (HIV-1 isolate CM240/GS022)
[26] = molecular target: HIV-1 gp41 of isolate CM244 (AE) (HIV-1 isolate CM244)
[27] = molecular target: HIV-1 gp41 of isolate CM235/GS020 (AE) (HIV-1 isolate CM235/GS020)
[28] = molecular target: HIV-1 gp41 of isolate CAM0002 (AG) (HIV-1 isolate CAM0002)
[29] = molecular target: HIV-1 gp41 of isolate NKU3006 (clade D) (HIV-1 isolate NKU3006)
[30] = molecular target: HIV-1 gp41 of isolate 301965 (clade D) (HIV-1 isolate 301965)

B1: CPT31 (cholesterol-PIE12-2-trimer with PEG32 fourth-arm spacer) (peptide)
peptide: Ac-[dH][dP][dC][dD][dY][dP][dE][dW][dQ][dW][dL][dC][dE][dL]G[PEG4′]K-NH2
modifications: disulfide 3-12 (inferred); not fully specified (some residues); numbers in words are those of the source; also: PIE12-2 trimer on scaffold, fourth arm PEG28 + PEG4 with cholesteryl carbamate
Antiviral potency, IC50, JRFL pseudovirion entry assay [1]: 0.015 nM | 1 nM inhibition [2]: 97.6% | 10 nM inhibition [2]: 99.1% | 1 nM inhibition [3]: 84.7% | 10 nM inhibition [3]: 85.4% | 1 nM inhibition [4]: 93.7% | 10 nM inhibition [4]: 94.4% | 1 nM inhibition [5]: 97% | 10 nM inhibition [5]: 99.3% | 1 nM inhibition [6]: 99.3% | 10 nM inhibition [6]: 100% | 1 nM inhibition [7]: 96.9% | 10 nM inhibition [7]: 99.8% | 1 nM inhibition [8]: 95.8% | 10 nM inhibition [8]: 99% | 1 nM inhibition [9]: 97.7% | 10 nM inhibition [9]: 99.7% | 1 nM inhibition [10]: 98.5% | 10 nM inhibition [10]: 99.6% | 1 nM inhibition [11]: 95.2% | 10 nM inhibition [11]: 98% | 1 nM inhibition [12]: 95.3% | 10 nM inhibition [12]: 97.7% | 1 nM inhibition [13]: 95.2% | 10 nM inhibition [13]: 98.2% | 1 nM inhibition [14]: 98.8% | 10 nM inhibition [14]: 99.5% | 1 nM inhibition [15]: 69.2% | 10 nM inhibition [15]: 72.3% | 1 nM inhibition [16]: 93.6% | 10 nM inhibition [16]: 98.7% | 1 nM inhibition [17]: 98.3% | 10 nM inhibition [17]: 98.8% | 1 nM inhibition [18]: 98.4% | 10 nM inhibition [18]: 99.7% | 1 nM inhibition [19]: 94.8% | 10 nM inhibition [19]: 97.5% | 1 nM inhibition [20]: 80.6% | 10 nM inhibition [20]: 83.4% | 1 nM inhibition [21]: 98.4% | 10 nM inhibition [21]: 99.8% | 1 nM inhibition [22]: 93.6% | 10 nM inhibition [22]: 99.5% | 1 nM inhibition [23]: 97% | 10 nM inhibition [23]: 98.4% | 1 nM inhibition [24]: 97.3% | 10 nM inhibition [24]: 98.5% | 1 nM inhibition [25]: 83.8% | 10 nM inhibition [25]: 95% | 1 nM inhibition [26]: 95.4% | 10 nM inhibition [26]: 99.5% | 1 nM inhibition [27]: 81.8% | 10 nM inhibition [27]: 98.7% | 1 nM inhibition [28]: 95.6% | 10 nM inhibition [28]: 99.7% | 1 nM inhibition [29]: 97.2% | 10 nM inhibition [29]: 99.8% | 1 nM inhibition [30]: 96.1% | 10 nM inhibition [30]: 97.7%
